Laboratory results reported in patent US20160024210A1 (AstraZeneca / MedImmune, published 2016).
Residue numbers refer to the chain shown, from its start.

B1: 4.5 humanized variant 13 (HC1-3 / LC1-1) (antibody, V domains shown)
VH: QVQLQESGPGLVKPSQTLSLTCTVSGFSITTGGYYWNWIRQFPGKKLEWMGYIYTSGRTSYNPSLKSRVTISRDTSKNQFSLKLSSVTAADTAVYYCADMADKGGWFAYWGQGTLVTVSS
VL: DIVMTQSPDSLAVSLGERATINCKSSQSLFSSNTKRNYLAWYQQKPGQPPKLLIYHASTRESGVPDRFSGSGSGTDFTLTISSLQAEDVAVYYCQQHYETPLTFGQGTRLEIK
notes: Variable domains only; detected with anti-hIg secondary; also called VH1C / VL1A
B2: 4.5 humanized variant 14 (HC1-3 / LC1-2) (antibody, V domains shown)
VH: B1 VH
VL: B1 VL with A40N, E61L, V91D, Y93F, Q106D
notes: Variable domains only; detected with anti-hIg secondary; also called VH1C / VL1B
B3: 4.5 humanized variant 12 (HC1-2 / LC2-3) (antibody, V domains shown)
VH: B1 VH with F42H, M50I
VL: DIVMTQTPSSLPVTPGEPASISCLSSQSLFSSNTKRNYLNWYLQKPGQSPKLLIYHASTRLSGVPDRFSGSGSGTDFTLKISRVEAEDVGDYFCQQHYETPLTFGDGTRLEIK
notes: Variable domains only; detected with anti-hIg secondary; also called VH1B / VL2C
B4: 4.5 humanized variant 19 (HC2-1 / LC1-1) (antibody, V domains shown)
VH: QITLKESGPTLVKPTQTLTLTCTFSGFSITTGGYYVGWIRQPPGKALEWLALIYTSGRTRYSPSLKSRLTITKDTSKNQVVLTMTNMDPVDTATYYCADMADKGGWFAYWGQGTLVTVSS
VL: B1 VL
notes: Variable domains only; detected with anti-hIg secondary; also called VH2A / VL1A
B5: 4.5 humanized variant 21 (HC2-1 / LC1-3) (antibody, V domains shown)
VH: B4 VH
VL: B1 VL with K24L, A40N, P49S, E61L, V91D, Y93F, Q106D
notes: Variable domains only; detected with anti-hIg secondary; also called VH2A / VL1C
B6: 4.5 humanized variant 15 (HC1-3 / LC1-3) (antibody, V domains shown)
VH: B1 VH
VL: B1 VL with K24L, A40N, P49S, E61L, V91D, Y93F, Q106D
notes: Variable domains only; detected with anti-hIg secondary; also called VH1C / VL1C
B7: 4.5 humanized variant 16 (HC1-3 / LC2-1) (antibody, V domains shown)
VH: B1 VH
VL: B3 VL with S9L, L24R, N40D, K51Q, T59Y, L61A, D91V, F93Y, D106Q
notes: Variable domains only; detected with anti-hIg secondary; also called VH1C / VL2A
B8: 4.5 humanized variant 17 (HC1-3 / LC2-2) (antibody, V domains shown)
VH: B1 VH
VL: B3 VL with S9L, L24R
notes: Variable domains only; detected with anti-hIg secondary; also called VH1C / VL2B
B9: 4.5 humanized variant 20 (HC2-1 / LC1-2) (antibody, V domains shown)
VH: B4 VH
VL: B1 VL with A40N, E61L, V91D, Y93F, Q106D
notes: Variable domains only; detected with anti-hIg secondary; also called VH2A / VL1B
B10: 4.5 humanized variant 18 (HC1-3 / LC2-3) (antibody, V domains shown)
VH: B1 VH
VL: B3 VL
notes: Variable domains only; detected with anti-hIg secondary; also called VH1C / VL2C
B11: 4.5 humanized variant 22 (HC2-1 / LC2-1) (antibody, V domains shown)
VH: B4 VH
VL: B3 VL with S9L, L24R, N40D, K51Q, T59Y, L61A, D91V, F93Y, D106Q
notes: Variable domains only; detected with anti-hIg secondary; also called VH2A / VL2A
B12: 4.5 humanized variant 23 (HC2-1 / LC2-2) (antibody, V domains shown)
VH: B4 VH
VL: B3 VL with S9L, L24R
notes: Variable domains only; detected with anti-hIg secondary; also called VH2A / VL2B

How the values were obtained:
[1] = target: T1, human H7CR (B7-H7 counter-receptor) (human, UniProt Q96BF3 23-282); assay: binding to human H7CR as endogenously expressed on the surface of a cell
T1 construct: Used for H7CR on CHO.hH7CR transfectants, human T cells and tonsil tissue; also called B7-H7CR; CD28H
T1 sequence: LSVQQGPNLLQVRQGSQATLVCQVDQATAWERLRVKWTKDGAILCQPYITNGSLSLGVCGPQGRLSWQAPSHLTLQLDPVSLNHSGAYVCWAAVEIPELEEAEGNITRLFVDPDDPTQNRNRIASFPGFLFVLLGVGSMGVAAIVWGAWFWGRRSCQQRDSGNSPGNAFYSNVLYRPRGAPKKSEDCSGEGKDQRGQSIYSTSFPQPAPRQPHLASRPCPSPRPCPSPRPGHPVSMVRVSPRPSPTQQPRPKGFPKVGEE

[2] = target: T2, H7CR-GFP fusion protein on transfected CHO cells (Homo sapiens (Human), UniProt Q96BF3 23-282); assay: flow cytometry, 5 µg/ml variant on H7CR-GFP transfected CHO cells, anti-hIg PE secondary antibody [row HC1-3, column LC1-1]
T2 construct: not shown: GFP part
T2 sequence: T1 sequence
Procedure: (§1) 5 μg/ml antibodies from thirty-six variants were incubated with H7CR-GFP fusion protein transfected CHO cells for 30 min at room temperature. Cells were then washed twice with 2 ml flow cytometry buffer, and resuspended in 100 μl flow cytometry buffer. 1 μl anti-hIg PE secondary antibody (Biolegend) was added and incubated with the cells for 15 mins Samples were then washed and resuspended in 100 μl flow cytometry buffer. Flow Cytometry data was acquired using BD Canto (BD Biosciences) in plate format and analyzed by FlowJo software.

[3] = target: T2, H7CR-GFP fusion protein on transfected …; assay: flow cytometry, 5 µg/ml variant on H7CR-GFP transfected CHO cells, anti-hIg PE secondary antibody [row HC1-3, column LC1-2]
Procedure: as §1

[4] = target: T2, H7CR-GFP fusion protein on transfected …; assay: flow cytometry, 5 µg/ml variant on H7CR-GFP transfected CHO cells, anti-hIg PE secondary antibody [row HC1-2, column LC2-3]
Procedure: as §1

[5] = target: T2, H7CR-GFP fusion protein on transfected …; assay: flow cytometry, 5 µg/ml variant on H7CR-GFP transfected CHO cells, anti-hIg PE secondary antibody [row HC2-1, column LC1-1]
Procedure: as §1

[6] = target: T2, H7CR-GFP fusion protein on transfected …; assay: flow cytometry, 5 µg/ml variant on H7CR-GFP transfected CHO cells, anti-hIg PE secondary antibody [row HC2-1, column LC1-3]
Procedure: as §1

[7] = target: T2, H7CR-GFP fusion protein on transfected …; assay: flow cytometry, 5 µg/ml variant on H7CR-GFP transfected CHO cells, anti-hIg PE secondary antibody [row HC1-3, column LC1-3]
Procedure: as §1

[8] = target: T2, H7CR-GFP fusion protein on transfected …; assay: flow cytometry, 5 µg/ml variant on H7CR-GFP transfected CHO cells, anti-hIg PE secondary antibody [row HC1-3, column LC2-1]
Procedure: as §1

[9] = target: T2, H7CR-GFP fusion protein on transfected …; assay: flow cytometry, 5 µg/ml variant on H7CR-GFP transfected CHO cells, anti-hIg PE secondary antibody [row HC1-3, column LC2-2]
Procedure: as §1

[10] = target: T2, H7CR-GFP fusion protein on transfected …; assay: flow cytometry, 5 µg/ml variant on H7CR-GFP transfected CHO cells, anti-hIg PE secondary antibody [row HC2-1, column LC1-2]
Procedure: as §1

[11] = target: T2, H7CR-GFP fusion protein on transfected …; assay: flow cytometry, 5 µg/ml variant on H7CR-GFP transfected CHO cells, anti-hIg PE secondary antibody [row HC1-3, column LC2-3]
Procedure: as §1

[12] = target: T2, H7CR-GFP fusion protein on transfected …; assay: flow cytometry, 5 µg/ml variant on H7CR-GFP transfected CHO cells, anti-hIg PE secondary antibody [row HC2-1, column LC2-1]
Procedure: as §1

[13] = target: T2, H7CR-GFP fusion protein on transfected …; assay: flow cytometry, 5 µg/ml variant on H7CR-GFP transfected CHO cells, anti-hIg PE secondary antibody [row HC2-1, column LC2-2]
Procedure: as §1

Row | Binder | binding result [1] | other results
1 | B1 | binds | binding result [2]: binds
2 | B2 | binds | binding result [3]: binds
3 | B3 | binds | binding result [4]: binds
4 | B4 | binds | binding result [5]: binds
5 | B5 | binds | binding result [6]: binds
6 | B6 | binds | binding result [7]: binds
7 | B7 | binds | binding result [8]: binds
8 | B8 | binds | binding result [9]: binds
9 | B9 | binds | binding result [10]: binds
10 | B10 | binds | binding result [11]: binds
11 | B11 | binds | binding result [12]: binds
12 | B12 | binds | binding result [13]: binds
